Reference: article PMC9482650, “Quantitative fragmentomics allow affinity mapping of interactomes” (Nature Communications, 2022)

Tests used:
Assay in all cases: holdup assay
Set-up in all cases: key: below the threshold = too weak to quantify, mostly under pKd 3.1 to 4
Conditions in all cases: plain residues with an end cap or a label only (N-terminal biotin on a linker: ttds)
GORASP2, Q9H8Y8 = target: GORASP2, Q9H8Y8
TX1BP3, O14907 = target: T1, TX1BP3, O14907
T1 sequence (O14907 10-122, limits assumed, looked up): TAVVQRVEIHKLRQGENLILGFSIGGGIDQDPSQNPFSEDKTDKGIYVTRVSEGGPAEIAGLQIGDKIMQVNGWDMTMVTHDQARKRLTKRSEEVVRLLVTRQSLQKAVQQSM

MAGI3_2, Q5TCQ9 = target: MAGI3_2, Q5TCQ9
NHERF2_2, Q15599 = target: NHERF2_2, Q15599
GRIP2_3, Q9C0E4 = target: GRIP2_3, Q9C0E4
LIN7C, Q9NUP9 = target: T2, LIN7C, Q9NUP9
T2 sequence (Q9NUP9 88-185, limits assumed, looked up): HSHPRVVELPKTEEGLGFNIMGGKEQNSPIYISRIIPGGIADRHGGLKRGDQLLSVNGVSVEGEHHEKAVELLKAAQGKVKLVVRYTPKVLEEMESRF

DLG4_3, P78352 = target: DLG4_3, P78352
ARHGEF11, O15085 = target: T3, ARHGEF11, O15085
T3 sequence (O15085 42-136, limits assumed, looked up): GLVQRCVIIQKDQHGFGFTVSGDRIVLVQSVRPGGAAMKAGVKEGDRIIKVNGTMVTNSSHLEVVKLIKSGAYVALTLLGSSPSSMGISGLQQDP

NHERF4_4, Q86UT5 = target: NHERF4_4, Q86UT5
TJP3_3, O95049 = target: T4, TJP3_3, O95049
T4 sequence (O95049 375-456, limits assumed, looked up): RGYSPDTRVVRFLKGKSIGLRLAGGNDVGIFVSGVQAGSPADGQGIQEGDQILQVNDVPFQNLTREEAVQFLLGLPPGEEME

Inadl_1, Q8NI35 = target: Inadl_1, Q8NI35
SNX27, Q96L92 = target: SNX27, Q96L92
FRMPD1, Q5SYB0 = target: T5, FRMPD1, Q5SYB0
T5 sequence (Q5SYB0 52-145, limits assumed, looked up): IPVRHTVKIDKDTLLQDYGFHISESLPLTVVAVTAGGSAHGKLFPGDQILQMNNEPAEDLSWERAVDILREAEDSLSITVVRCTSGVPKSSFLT

NOS1, P29475 = target: NOS1, P29475
MAST1, Q9Y2H9 = target: MAST1, Q9Y2H9
SCRIB_3, Q14160 = target: SCRIB_3, Q14160
LAP2, Q96RT1 = target: LAP2, Q96RT1
DFNB31_3, Q9P202 = target: T6, DFNB31_3, Q9P202
T6 sequence (Q9P202 811-907, limits assumed, looked up): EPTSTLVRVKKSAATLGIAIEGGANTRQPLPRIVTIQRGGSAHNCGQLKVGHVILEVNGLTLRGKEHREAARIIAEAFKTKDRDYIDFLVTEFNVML

PDZD2_2, O15018 = target: T7, PDZD2_2, O15018
T7 sequence (O15018 329-429, limits assumed, looked up): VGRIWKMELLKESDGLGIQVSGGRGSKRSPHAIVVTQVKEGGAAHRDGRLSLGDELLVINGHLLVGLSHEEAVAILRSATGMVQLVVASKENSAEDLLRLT

MAGI2_5, Q86UL8 = target: MAGI2_5, Q86UL8
ARHGAP21, Q5T5U3 = target: T8, ARHGAP21, Q5T5U3
T8 sequence (Q5T5U3 45-169, limits assumed, looked up): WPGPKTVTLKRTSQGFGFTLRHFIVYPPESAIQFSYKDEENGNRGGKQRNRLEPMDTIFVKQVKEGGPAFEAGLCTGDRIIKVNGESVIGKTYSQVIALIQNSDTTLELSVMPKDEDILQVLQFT

DLG2_3, Q15700 = target: DLG2_3, Q15700
APBA1_2, Q02410 = target: T9, APBA1_2, Q02410
T9 sequence (Q02410 742-832, limits assumed, looked up): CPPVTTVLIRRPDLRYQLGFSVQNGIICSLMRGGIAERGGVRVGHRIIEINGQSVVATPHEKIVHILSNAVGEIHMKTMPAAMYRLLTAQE

APBA1_1, Q02410 = target: T10, APBA1_1, Q02410
T10 sequence (Q02410 651-752, limits assumed, looked up): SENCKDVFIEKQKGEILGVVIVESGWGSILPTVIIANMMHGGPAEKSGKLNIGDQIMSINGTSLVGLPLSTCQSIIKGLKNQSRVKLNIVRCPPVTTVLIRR

GRID2IP_2, A4D2P6 = target: GRID2IP_2, A4D2P6
FRMPD3, Q5JV73 = target: FRMPD3, Q5JV73
SNTG2, Q9NY99 = target: T11, SNTG2, Q9NY99
T11 sequence (Q9NY99 68-166, limits assumed, looked up): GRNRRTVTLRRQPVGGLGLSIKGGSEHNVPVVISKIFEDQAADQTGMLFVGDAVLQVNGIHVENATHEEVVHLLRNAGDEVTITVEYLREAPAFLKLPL

Chain of MAGI2_5, Q86UL8 (Q86UL8 915-1017): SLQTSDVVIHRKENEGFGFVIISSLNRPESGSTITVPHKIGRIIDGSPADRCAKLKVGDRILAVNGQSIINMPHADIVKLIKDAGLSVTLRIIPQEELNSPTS
Chain of GRIP2_3, Q9C0E4 (Q9C0E4 238-339): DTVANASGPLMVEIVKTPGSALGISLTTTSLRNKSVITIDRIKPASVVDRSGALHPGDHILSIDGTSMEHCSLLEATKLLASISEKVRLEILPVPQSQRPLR
Chain of Inadl_1, Q8NI35 (Q8NI35 113-229): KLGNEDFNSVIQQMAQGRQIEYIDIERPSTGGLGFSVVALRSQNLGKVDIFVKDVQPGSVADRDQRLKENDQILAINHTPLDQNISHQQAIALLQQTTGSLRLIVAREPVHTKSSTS
Chain of NHERF2_2, Q15599 (Q15599 142-238): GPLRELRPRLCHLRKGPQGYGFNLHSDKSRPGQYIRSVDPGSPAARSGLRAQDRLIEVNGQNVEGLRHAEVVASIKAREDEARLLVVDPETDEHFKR
Chain of DLG4_3, P78352 (P78352 306-403): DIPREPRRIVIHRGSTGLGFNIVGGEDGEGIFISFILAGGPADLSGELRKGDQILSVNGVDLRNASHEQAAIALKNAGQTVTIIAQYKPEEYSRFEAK
Chain of MAGI3_2, Q5TCQ9 (Q5TCQ9 398-503): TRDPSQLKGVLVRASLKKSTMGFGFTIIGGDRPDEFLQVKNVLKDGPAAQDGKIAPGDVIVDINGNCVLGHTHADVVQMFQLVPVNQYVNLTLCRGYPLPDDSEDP
Chain of GRID2IP_2, A4D2P6 (A4D2P6 272-370): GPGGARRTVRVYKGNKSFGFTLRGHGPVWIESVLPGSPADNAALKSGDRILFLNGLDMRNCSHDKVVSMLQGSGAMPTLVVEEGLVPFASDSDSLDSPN
Chain of LAP2, Q96RT1 (Q96RT1 other isoform, or with tags, fused parts or gaps): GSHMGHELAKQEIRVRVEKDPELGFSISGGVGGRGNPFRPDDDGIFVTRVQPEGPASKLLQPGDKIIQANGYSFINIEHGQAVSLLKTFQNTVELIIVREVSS
Chain of SCRIB_3, Q14160 (Q14160 999-1103): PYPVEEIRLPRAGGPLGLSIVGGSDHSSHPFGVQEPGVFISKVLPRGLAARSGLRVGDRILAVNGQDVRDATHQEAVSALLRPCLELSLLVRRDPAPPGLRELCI
Chain of FRMPD3, Q5JV73 (Q5JV73 12-100): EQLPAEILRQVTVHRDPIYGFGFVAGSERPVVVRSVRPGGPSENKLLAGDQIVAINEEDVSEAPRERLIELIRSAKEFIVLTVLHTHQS
Chain of MAST1, Q9Y2H9 (Q9Y2H9 962-1065): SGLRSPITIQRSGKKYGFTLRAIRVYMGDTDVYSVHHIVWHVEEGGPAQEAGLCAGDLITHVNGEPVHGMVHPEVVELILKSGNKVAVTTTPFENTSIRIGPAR
Chain of NHERF4_4, Q86UT5 (Q86UT5 464-550): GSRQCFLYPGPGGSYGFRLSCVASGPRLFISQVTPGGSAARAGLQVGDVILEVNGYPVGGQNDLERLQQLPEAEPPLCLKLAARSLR
Chain of NOS1, P29475 (P29475 9-101): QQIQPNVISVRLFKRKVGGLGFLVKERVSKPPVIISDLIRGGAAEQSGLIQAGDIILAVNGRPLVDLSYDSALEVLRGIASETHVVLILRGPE

B1: ARHGEF26, Q96DR7 (peptide)
chain: GRLLGLETNV
pKd (GORASP2, Q9H8Y8): 3.97
pKd (TX1BP3, O14907): 4.49
pKd (MAGI3_2, Q5TCQ9): 4.68
pKd (NHERF2_2, Q15599): below the threshold
pKd (GRIP2_3, Q9C0E4): below the threshold
pKd (LIN7C, Q9NUP9): 3.72
pKd (DLG4_3, P78352): 3.8
pKd (ARHGEF11, O15085): below the threshold
pKd (NHERF4_4, Q86UT5): below the threshold
pKd (TJP3_3, O95049): below the threshold
pKd (Inadl_1, Q8NI35): below the threshold
pKd (SNX27, Q96L92): 4.49
pKd (FRMPD1, Q5SYB0): below the threshold
pKd (NOS1, P29475): 3.88
pKd (MAST1, Q9Y2H9): 4.33
pKd (SCRIB_3, Q14160): 4.67
pKd (LAP2, Q96RT1): 4.41
pKd (DFNB31_3, Q9P202): below the threshold
pKd (PDZD2_2, O15018): 4.12
pKd (MAGI2_5, Q86UL8): below the threshold
pKd (ARHGAP21, Q5T5U3): below the threshold
pKd (DLG2_3, Q15700): 4.54
pKd (APBA1_2, Q02410): 4.23
pKd (APBA1_1, Q02410): below the threshold
pKd (GRID2IP_2, A4D2P6): below the threshold
pKd (FRMPD3, Q5JV73): below the threshold
pKd (SNTG2, Q9NY99): 4.55
